Laboratory results from the nanobody polyreactivity screen of Harvey et al. (2022).

Experiment: yeast display, Sf9 membrane polyspecificity reagent, FACS + sequencing; frameworks hold sequencing errors
Method in brief: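 Sorting gates, low and high (top ~1%), were placed on anti-HA fluorescence to track expression and on streptavidin fluorescence to track reagent binding. A clone's polyreactivity label is taken from the gate it came out of. The reagent was 10% biotinylated, detergent-solubilized Sf9 membrane, applied for 1 hour at 4 °C to galactose-induced yeast display cells.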

Row | Sequence | polyreactivity (PSR sort gate)
1 | QVQLVESGGGLVQAGGSLRLSCDASGSIFGSYAMGWYRQAPGKEWELVAAISRRGGSTYYADSVKGRFTISRDNAKNTVYLQMNSLKAEDTAVYYCARRDYGVLNKGLGQEGDYWGQGTQVTVSS | low polyreactivity
2 | QVQLVESGGGLVQAGGSLRLSCDASGSIFNYYAMGWYRQAPGKERELVATITRGGSTYYADSVKGRFTISRDNAKNTVYLQMNILKPEDTAVYYCAKVGRSTAYQNGYDYWGQGTQVTVSS | low polyreactivity
3 | QVQLVESGGGLVQAGGSLRLSCDASGSIFQRYAMGWYRPAPGKERELVAGINWSGGRTYYADSVKGRFTISRDNAKNTVYLQMISLKPEDTAVYYCAAARYTRYDYWGQGTQVTVSS | high polyreactivity
4 | QVQLVESGGGLVQAGGSLRLSCDASGSIFRGYAMGWYRQAPGKEREFVAAISKRSGSTYYADSVKGRFTISRDNAKNSVYLQMNSLKPEDTAVYYCAKERVAAAGGYWGQGTQVTVSS | high polyreactivity
5 | QVQLVESGGGLVQAGGSLRLSCDASGSILWLNAMGWYRQAPGKERELVADITRGGSTYYADSVKGRFTISRDNAKNTVYLQMNSLKPEDTAVYYCAARLYGGYDWGQGTQVTVSS | high polyreactivity
6 | QVQLVESGGGLVQAGGSLRLSCDASGSPFEWYGMGWYRQAPGKERELVDAITSGGSTNYADSVKGRFTISRDNAKNTVYLQMNCLKPEVPAVYYCNAEYKPYHYYKAWVYTYDYGYWGQGTQVTVSS | low polyreactivity
7 | QVQLVESGGGLVQAGGSLRLSCDASGSTFNKYAMGWYRQAPGKERELVAAITTSGGRTTYADSVKGRFTISRDNAKNTVYVQMNSLKPEDTEVYYCAARYYIHRGYDYDYWGQGTQVSVSS | high polyreactivity
8 | QVQLVESGGGLVQAGGSLRLSCDASGSTFTFNDMGWYRQAPGKERELVAAITSGGSTTYADSVKGRFTISRDNAKNTVYLQMNSLKPEDTAVYYCAADYVYFYFYGYDSWGQGTQVTVSS | low polyreactivity
9 | QVQLVESGGGLVQAGGSLRLSCDASGSTFYSYTMGWSRQAPGKERELVATISWSGSSTYDADSVKGRFTISRDNAKNTVYLQMNSLTPEDTAVYYSAAVHYDKSAYWWWYNYWGQGTLVTVSS | low polyreactivity
10 | QVQLVESGGGLVQAGGSLRLSCDASGSTIIRNAMGWSRQAPGKERELVAAISTSGGRTHYADSVKGRFTISRDNAKNTVYLKMNSLKPEDTAVYYCATRGKGHYYYWGQGTQVTVSS | high polyreactivity
11 | QVQLVESGGGLVQAGGSLRLSCDASGSTSKTYAMGWYRQAPGKERELVAVISYGGTTYYADSVKGRFTISRDNAKNTVYLQLNSLKPEDTAVYYCAARAWHRRGVPHYYWGQGSQVTVSS | high polyreactivity
12 | QVQLVESGGGLVQAGGSLRLSCDASGSTSSKYAMGWYRQAPGKEWQLVATISWRTGSTYYADSVKGRFTISRDNAKNTVYLEMNSLKPEETAVYYCNARVAGRRKYDYWGQGTQVTVSS | high polyreactivity
13 | QVQLVESGGGLVQAGGSLRLSCDDSGFIFFDYAMGWYRQAPGKEREFVAAISTRGGSTYYADSVKGLFTISRDNAKNTVYLQMNSLKPEDTSVYYCNARTIRPWGENGYWGQGTQVSVSS | high polyreactivity
14 | QVQLVESGGGLVQAGGSLRLSCGASGFISKFYAMGWYRQAPGKERELVASISRDGSTSYADSVKGRFTMSRDNAKNSVYLQMNSLKPEDTAVYYCAAPSYRTRYYYWGQGTQVTVSS | high polyreactivity
15 | QVQLVESGGGLVQAGGSLRLSCGASGFTFSPYAMGWYRQAPGKERELVAVISGGGSTYYADSVKGRFTISRDNAKNTVYLQMNSLKPEDTAGYYCAKRFYRSYYWGQGTQVTVSS | high polyreactivity
16 | QVQLVESGGGLVQAGGSLRLSCGASGIIFFNNVMGWYRHAPGKERELVAAITFSGSSTYYADSVKGRFTISRDNAKNTVYLQMNSMKPEDTAVYYCAAKYYGVLYTVPGDDYWGQGTLVTVSS | low polyreactivity
17 | QVQLVESGGGLVQAGGSLRLSCGASGNIFTRNAMGWSRQAPGKERECVAAITESGASTYYADSVKGRFTISRDNAKNTVYLQMNSLKPEDTAVYYCNARLSRWRRRPYDYWGQGTQVTVSS | high polyreactivity
18 | QVQLVESGGGLVQAGGSLRLSCGASGRIFAYYAMGWYRQAPGKERELVADISSGGNTYYADSVKGRFTISRDNAKNTVYLQMNSLKPEDTAVYYCAADIAWYTHDHRIFDYWGQGTQVTVSS | low polyreactivity
19 | QVQLVESGGGLVQAGGSLRLSCGASGRIFGINAMGWYRQAPGKERELVAAITKSGGTTYYADSVKGRFTISRDNAKNTVYLQMNTLKPEDTAVYYCAAKGSVVYQLRYDYWGQGTQVTVSS | high polyreactivity
20 | QVQLVESGGGLVQAGGSLRLSCGASGRIFYYYVMGWSRQGPGKERELVAVIDWSGGSTYYADSVKGRFTISRDNAKNTVYLQMNSLKPEDTAVYYCAKVWLKFSLAYEDYVYWGQGTQVTVSS | low polyreactivity
21 | QVQLVESGGGLVQAGGSLRLSCGASGSIFNKYAIGWYRQAPGKERELVAAISVSGTRTYYADSVKGRFTISRDNAKNTCYLQMNSLKPEDTAVYYCAATRLDSTGSMYYYWGQGTQVTVSS | high polyreactivity
22 | QVQLVESGGGLVQAGGSLRLSCGASGSIFRLNAMGWYRQAPGKERELVARIDSSGSTNYADSVKGRFTISRDNAKNTVYLQMNSLKPEDTAVYYCAAVLVLIVGMDSWGQGTQVTVSS | low polyreactivity

Row | Sequence | polyreactivity (PSR sort gate)
23 | QVQLVESGGGLVQAGGSLRLSCGASGSIFYGYAMGWYRQAPGKERELVASITYSGGSTYYADSVKGRFTISRDNAKNTVYLQMNSLKPEDTTVYYCAVIGYHYSAISPASQTRQGYDYWGQGTQVTVSS | low polyreactivity
24 | QVQLVESGGGLVQAGGSLRLSCGASGSIFYQNVMGWYRQAPGKERELVAAISSSGDSTYYADSVKGRFTISRDNAKNTVYLQMNSLKPEDTAVYYCAAEPEYVSGPYDYWGQGTQVTVSS | low polyreactivity
25 | QVQLVESGGGLVQAGGSLRLSCGAYGLTFTYNTMGWYRPAPGKERELVAAITSSGGRTYYADSVKGRFTISRDHAKNTVYFQMNSLKPEDTAVYYCAKTKYYPKRDYYWGQGTLVTVSS | high polyreactivity
26 | QVQLVESGGGLVQAGGSLRLSCHASGYTFYVYALGWYRQPPGKERELVAAIGGGSTNYADSVKGRFTISRDNAKNTVYLQMNSLKPEDTAVYYCAARRYYKFYYWGQGTQVTVSS | high polyreactivity
27 | QVQLVESGGGLVQAGGSLRLSCHATGFTFTIYAMGWYRQAPGKERELVATISGRAGRTYYADSVKGRFTISRDIAKNTVYLQMNSLKPEDTAVYYCNAGQWRYPGLYYYWGKGTQVTVSS | high polyreactivity
28 | QVQLVESGGGLVQAGGSLRLSCPASGFIIRLYVMGWYRQAPGKERELVAAISSGGRTYYADSVKGRFTISRDNAKNTVYLQMNSLKPEDTAVYYCAAYVRGWGCDDFWGQGSQVTVSS | high polyreactivity
29 | QVQLVESGGGLVQAGGSLRLSCPASGFNFPAYTMGSYRQAPGKERELVAAITSSGGNTYYADSVKGRFTISRDNAKNTVYFQMNSLKPEDTAVYYCATVSVRWPSNDHVRYDYWGQGTQVTVSS | low polyreactivity
30 | QVQLVESGGGLVQAGGSLRLSCPASGFTFHHYVMGWYRPAPGKEMEFVASIRWRGGSTYYADSVKGRFTISRDNAKTTVYLQMNSLKPEDTAVYYSNADPYVYSSWQYGYWGQGTQVTVSS | high polyreactivity
31 | QVQLVESGGGLVQAGGSLRLSCPASGITFKGYTMGWYRQAPGKERELVATISRGGRTYADSVKGRFTISRDNAKKTFYLQMNSLKPEDTSVYYCAADKYWAQNDYWGQGTQVTVSS | low polyreactivity
32 | QVQLVESGGGLVQAGGSLRLSCPASGRIFYPYPKGWYRQAPGKERELVATITRTGSTYYADSVKGRFTITRDNAKNTVYVQMNSLKPEDPAVYYCAVQRSYVGPRQYNYWGQGTQVTVSS | high polyreactivity
33 | QVQLVESGGGLVQAGGSLRLSCPASGRTFKWYAMGWYRQAPGKERELVAAISTGGRTHYADSVKGRFTISRDNSKNTVYLQMNSLKPEDTAVYYCNAADDLADPERTENHKRDYWGQGTQVTVSS | high polyreactivity
34 | QVQLVESGGGLVQAGGSLRLSCPASGRTFNWNAMGWYRKAPGKERELVADISIRGGSTNYADSVKGRFTISRDNAKNTVYLQMNSLKPEDTAVYYCAAEYYDSGNDYWGQGTQVTVSS | low polyreactivity
35 | QVQLVESGGGLVQAGGSLRLSCPASGRTFWWYAMGWYRQAPGKEREIVAAISQRGTSTYYADSVKGRFTISRDNAKNTVYLQMNSLNPEDTAVYYCAADRPYYPLKYDYWGQGTQVTVSS | high polyreactivity
36 | QVQLVESGGGLVQAGGSLRLSCPASGRTIRPYAMGWYRQAPGKERELVAAITGSGTSTYYADSVKGRFTISRDNAKNTVYLQMNSLKPEDTAVYYCAVAIGYVYKTYYYWGQGTQVTVSS | high polyreactivity
37 | QVQLVESGGGLVQAGGSLRLSCPASGSIFKYYAMGWYRQAPGKDRELVAPITDRGSSTYYADSVKGRFTISRDNAKNTVYLQMNSLKPEDTAVYYCAAVYYAFYRFGYWGQGTQVTVSS | high polyreactivity
38 | QVQLVESGGGLVQAGGSLRLSCPASGSTFLFNAMGWYRQAPGKERELVAAIRSDGSTDYADSVKGRFTISRDNAKTTVYLQMNSLKPEDTAVYYCAAESITGYVSDFDYWGQGTQVTVSS | low polyreactivity
39 | QVQLVESGGGLVQAGGSLRLSCPASGSTFRYYAMGWYRQAPGKERELVAAISYRGGSTKYADSVKGRFTISRDNAKNTVYLQMNSLKPEDTAVYYCNTAPWWRTSSDYEYWGQGTQVTVSS | high polyreactivity
40 | QVQLVESGGGLVQAGGSLRLSCPASGSTFVLNAMGWYSQAPGKERELVAAITGSGSTNYADSVKGRFTISRDNAKNTVYLQMNRLKPEDTAVYYCATAAVYPIPFGYWGQGTQVTVSS | low polyreactivity
41 | QVQLVESGGGLVQAGGSLRLSCPASGSTFYYYAMGWYRQAPGKERELVASISDDGSTNYADSVKGRFTISRDNAKNTVYLQMNSLKPEDTAVYYCAAVWWHQFGSAWYQMGYWGQGTQVTVSS | low polyreactivity
42 | QVQLVESGGGLVQAGGSLRLSCPASGTIFYVNAMGLYRQEPGKETEFVAAITGGASTNFADSVKGRFTSSRDNAKNTVYLQMNSLKPEDTAVYYCAVDPVGHATRVWTYHYDYWGQGTQVTVSS | low polyreactivity
43 | QVQLVESGGGLVQAGGSLRLSCPASGTTIVSNAMGWYRQAPGKERDLVAAISSSGGRTSYADSVKGRFTISRDNAKNTVSLQMNSLKPEDTAVYYCAADHPPGDTYEYWGQGTQVSVSS | low polyreactivity
